Measurements as given in patent US6432920B1, “Nck SH3 binding peptides” (Cytogen Corporation, priority 1994, dated 2002).

Key:
Src SH3-GST [1] = molecular target: T1, Src SH3-GST (Homo sapiens, UniProt P12931); assay: Phage clone binding to immobilized GST-SH3 (elution titering / anti-phage ELISA); conditions: FIG. 14
T1 construct: Bacterially expressed Src SH3 glutathione-S-transferase (Src-GST) fusion protein was purified from bacterial lysates; made in house; host or cells: bacteria (pGEX vector)
Description: Library screens were performed as previously described. Kay, B. K., et al., in Gene (1993) 128:59-65. Briefly, 1'10^11 pfu TSAR 9, TSAR 12, or R8C phage in Buffer A were incubated in a Src SH3-GST-coated well for 2 hours. The wells were washed, and bound phage were eluted with 100 μL 50 mM glycine-HCl (pH 2.2), transferred to a new well, and neutralized with […] 200 mM NaHPO4 (pH 7.0). Recovered phage were used to infect 1×10^9 DH5αF′ E. coli cells in 20 mL 2×YT; the infected cells were grown overnight, resulting in a 1000- to 10,000-fold amplification of phage titer. Amplified phage were panned twice more, as above, excepting the amplification step. Binding phage recovered after the third round of panning were plated at a low density on a lawn of DH5αF′ E. coli cells to yield isolated plaques for clonal analysis. […]
(§1) Indeed, the ability of isolated phage clones to bind to several SH3 domains derived from a variety of different proteins can be investigated by the manner described above. […] From these experiments, the relative specificity of different Src SH3 binding clones for SH3 domains derived from other proteins is determined.
To evaluate the binding of isolates to various targets proteins, enzyme-linked-immuno-assays (ELISA) were also performed. […] Plates are read with a plate reader (Molecular Devices, Menlo Park, Calif.) at 405 nm wavelength. […]

Yes SH3 = molecular target: T2, Yes SH3 (Homo sapiens, UniProt P07947); assay: Phage clone binding to immobilized GST-SH3 (anti-phage ELISA); conditions: FIG. 14
T2 construct: a construct expressing the SH3 domain of Yes was obtained from Dr. Marius Sudol (Rockefeller University); made in house; host or cells: bacteria (pGEX vector)
T2 sequence (P07947 91-152 limits assumed): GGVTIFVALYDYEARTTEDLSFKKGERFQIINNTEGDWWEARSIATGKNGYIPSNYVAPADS
Description: as §1, with “above. GST-SH3 fusion proteins containing SH3 domains from a variety of different proteins are bound to microliter wells. An aliquot of the aforementioned phage stocks (50 μL) is introduced into wells containing the different GST-SH3 fusion proteins.” for “above.”
To evaluate the binding of isolates to various targets proteins, enzyme-linked-immuno-assays (ELISA) were also performed. […] Plates are read with a plate reader (Molecular Devices, Menlo Park, Calif.) at 405 nm wavelength.
Library screens were performed as described in Sparks, A., B., et al., in Methods in Enzymology, (1995) 255:498-509. […] The wells were washed five times with PBS+0.1% Tween 20, and bound phage were detected by anti-phage ELISA according to the manufacturer's instructions (Pharmacia, Piscataway, N.J.). […]
To explore further the capacity of SH3 domains to discriminate between different SH3 ligands, we investigated the binding of phage expressing various peptide ligands to a panel of SH3 domains. […] The wells were washed several times, and bound phage were detected with an anti-phage antibody (see FIG. 14). […]

Src SH3-GST [2] = molecular target: T1, Src SH3-GST; assay: Biotinylated synthetic peptide binding ELISA to immobilized Src SH3-GST; conditions: not tested

MPPPVPPRPPGTL
cross-reactivity of Src SH3 domain with phage clone selected with another SH3 domain (Src SH3-GST [1]): cross-reacted | cross-reactivity of Yes SH3 domain with phage clone selected with another SH3 domain (Yes SH3): cross-reacted

RSTPAPPVPPRTTR
surmised binding to a variety of SH3 domains (Src SH3-GST [2]): strong but generic binding
